Source: the NTF2 design screens of Basanta et al. (2020)

Test: protease stability score; higher = more stable; yeast display proteolysis, trypsin and chymotrypsin;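 further: relative to predicted unfolded state with 0 unfolded-like and 1 meaning tenfold more protease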

Sequence	protease stability score
DTEEKELQKSLKELVTAVQTGDFKLLKELFDPHVRIDIGDKNVIGREEFSRFQKEEMEKWGVSRFTFDMEIHRYEIQGNKAYVDALNREEINGQEIHFNVDLFIHKINGKWLITEIRNK	0.494
DEREEFIHIAIHLLIHVDRTGDEDTYRKMMDPTTKLEVNGVKYIGRQEVIKFLRHIRIDSQDIKRWELVGDKVDLDVHVDGDVNGRRVREDRQIHLWKVDGRWVLEKIEYK	0.955
SEEHKEMKRSLDESAKALTTGDEEHVTKMVDPNVRIIIGDKTLIGMEKWHEFLKEMRVSIHHIIFRDSDIQGDKIRLDVEVDIRVHYNGREESSKIKSKIILLKFNGKWIIHAVEFD	0.833
SEEHEEVHKVIEMLVRHARTGDEDYLRNQFDPNARVRFNGKDRHGRESLDEMLKQFDVIKEVRIKRIDVQGEKIHADIEIRGRYNGQEINTESHIVFKKINGQWIIEEVEFK	1.6
SESKHDLIRIFEERSEAHETGDEDFIMELIDPHVKIIIGDKTFHGREKYLEWEKLFGVKHVHFHVKDVRFQGDKVHVNGILRIRVGDKHEEFQVHILITKVNGVWIIKEIEIN	1.35
SEENEAAKLVIEKLNHSWKTGDWRLSEKLMDPDVRVHINGQDLHGREQARKFLEEIRLHMRDVKVKEIRIVDGRLETHGHVHIELIFDGRVFRIERDVESVVLKFNGKWTLESLEVI	1.21
DEEHEDMDKYSKLLVEMLKTGDEHIFKILADPHVRIDINGREYHGWEDWVEVVRELRIHRLHFTHMEIQGDKLHLHLKSKFSFDGRVHEIEIRIHAKKVNGRWVIKEIRII	2.29
KEDEEYFREVTKNLLELIETGDFDMLTELLDPHMLLDVNGRTFHGWELAVEWYRQHVKKFGIDNIKVTLKHIHIQGNKIHLDVEVEIGDKTERREFVLTKINGRWRFDSVVVR	2.19
DELTRQMRTFAERWIHAERTGDEEILRELMDPHAKLDVKQGDKRHDWHGRERITEFIRRMGIKHIQVDHVELQGEKIHMHVTMYVDGQVLDSTLKLWVVDGVTKSVEIEFK	1.2
DEEKEEAEHFFHFFFHLLITGDEEQWFRLADPNMRVRVNGVLLHGREIWERLVQEIRVNHMHLDRMEIHVFNGRMDVYIIGHVRRIIGDKEETTTVHIRIVMFKVNGRWVIHAVEEDYR	1.81
DRREEHAVNVFEIMFVLLLTGDETLFDKLFDPHVLFIIGDKEYHGRERFSKEMLRWIEEWRIQEFKIKDVRVVGDKAEIDGRIRGRYGDKETEIELHLIVMKVDGRWLVHSIELV	1.09
AEQHEQAREFLRNWLEAYHTGDEDLLRSMFDPNVRLHVDGRVIIGREDIIRERLHFLENHGITFHFRIQDMSVQGEKVIFDVEFHYRYNGQDYHKKVWLFVEKINGRWFMTQININ	2.19
TELEDLVKRLWHIWLHAVLTGDEDLLTKLIDPHARLEIHIGDKEFIHIGREEFVRFMREYHRHLRVERVDERSMEVIGNKSHSDVRTVIHIDGRTIDTRMHIDLIVVNGRVKSLEIHVH	2.26
DSDEEATKDFLEILIKLEMTGNEEEMRKMLDPNVRLIIDGVNLHGREALNVYLERFKNIQVEEIRIRHIEFQGEKVKIDYEWTVRINGRHHHQRTTIILIKYDGRWIIHMIHWH	2.55
SDEEERTRTAIEQLIELRLTGDEEMLHKLVDPHYRLHFIVDGRDLDFIGWRDFQRIFHEETKKFKNMRIEWRHVDIVNGVVTVHIELKIGDKRDEIDLFFFKINGRWILKSVEVHRR	1.47
DEEEERTERVSQLFWELFLTGDEEELFKLVDPHVRSHVGDKDYHGRETAHEIWHRIKNVRMRLDHVELRIVNGRADLHVRGKLIIGDKKVELNIEILVVKVNGQWLVERIRVETK	1.31
TEDKEIAIRVTEHFIEAIYTGDEDRVRDLLDPEARLDVNGVELHGMRWFTFWLRQIRIHNMYIRHTEVQGDKVHVDMEQDVEFNGKRHELKSHFVLLKVNGRWTVKHYNVR	2.28
SEEENISKHLADLMFRAIFTGDWQELSRLLDPNARLRVDGVIHHGRETSVEFLERMFRTLGIDHYRVRHVNVQGEKVDIHSEVEYDGRKIDTKIHLVVVNGKVKSVDVRVD	1.97
DEHTRLMDRVSKELMHYRRTGDEHSLDHLLDPHVRLDQGDWEKHGMEEYIEFVRRVKNVKLRIHDITVDIVNGVVIVFIDGILHVNGVDITTRIHIYFRKVNGVWLVESLRYEVG	0.373
DESEELAKQFMEVLARSMRTGDEEKIVKMLDPNVKVVINGVELHGREALEHILREIRVEDVWLTHIFVQGEKVRIDYREKGEFNGRLDTLTVHIIVKKIDGKWKITEFRIH	1.89
DEREEWVERIERRLKEAIRTGDEHTLSKNMDPDAKLDINGVDLIGWERVIDFLRELRKELGVDKIHFRVESRRIIGDKAELDTRLHVNGKHHDTHVIIEKFNGVWSIHSLHVR	1.15
SEDEELSKKAVEDILRNLETGDWETISRMADPHVRVDFNGVDIHGREVMSKMFEDELRDLGVTKVDVRLHDVDSQGDKVIVHHRVHVNGRTEEVEVHATKFNGKWVIKKMTVRVK	1.19
DDKKQFLDHAINRLIRALLTGDWHILFRLLDPHVRMIQGDKEYHGRELWREIYFQDIQRVPNLTFLIKDYHIDLQGDKLRIEIEGELIIDGVNIHMEIISEHTKVNGRWSIHHLEIRHQ	1.33
SEDDDLAKDFVSLMLHEFRTGNEESMSKLVDPHVRLHIGDKTYVGRENVSRILKKELRDYGIDHMHIDHLRVQGDKVHIHTTYRQGDKEMETHFVILKVDGKWFMHEIEIR	1.88
TELEKDVVEVLHFLTHAHKTGDEDAINRLLDPHTRIDIDGQEFIGREDALRLWHELRTTHMRIDDRRIQGDKIQVDGQVNYLVNGREEERDVTIHMVKFDGVWVLREIKID	2.07
